The results in this text go back to patent US20020076795A1, “Novel TRF1 binding protein, methods of use thereof” (published 2002).

One data set deals with TRF1 (hTRF1) (Homo sapiens, UniProt P54274 P54274:2-439). Nature of the data set: EMSA; 13-120 ng TRF1 per 20 ul, 1 ng probe, 20 mM Hepes-KOH pH 7.9, 100 mM KCl, 100 ng sheared E. coli DNA, room temperature; slight nonspecific stimulation by tankyrase without NAD+. Particulars: tags: baculovirus-derived (Bianchi et al. 1997); chain copies: 2 (homodimer, stated; several dimers per probe at high concentration); label: end-labeled. The method, then: Biol. 12:4834 (1992)] containing 12 tandem TTAGGG repeats. Baculovirus-derived TRF1 (13 to 120 ng) [Bianchi et al. EMBO J. 16:1785 (1997)] was incubated for 30 minutes at room temperature in a 20 μl reaction containing 20 mM Hepes-KOH (pH 7.9), 100 mM KCL, 0.5 mM DTT, 5% glycerol, 0.1% NP40, 100 ng sheared E. coli DNA, 100 ng β-casein, and 1 ng of labeled probe. In some cases, reactions were supplemented with NAD⁺ (0.2 mM) and baculovirus-derived human tankyrase (2.5 to 200 ng). Samples were fractionated on a 0.7% agarose gel run in 0.1× TBE (8.9 mM Tris-base, 8.9 mM Boric acid, and 0.2 mM EDTA) at 130 volts for 1 hour at room temperature. Gels were dried onto Whatman DE81 paper and autoradiographed.
On the technique in general: Mobility shift assays separate free from complexed probe on a gel.

Data set [1] has as its target T1, human full length TRF1 fused to LexA (LexA-TRF1) (human, UniProt P0A7C2 1-202; P54274 2-439).
T1 construct: The construct comes from Bianchi et al. 1997; also called LexA-FL
T1 sequence (looked up): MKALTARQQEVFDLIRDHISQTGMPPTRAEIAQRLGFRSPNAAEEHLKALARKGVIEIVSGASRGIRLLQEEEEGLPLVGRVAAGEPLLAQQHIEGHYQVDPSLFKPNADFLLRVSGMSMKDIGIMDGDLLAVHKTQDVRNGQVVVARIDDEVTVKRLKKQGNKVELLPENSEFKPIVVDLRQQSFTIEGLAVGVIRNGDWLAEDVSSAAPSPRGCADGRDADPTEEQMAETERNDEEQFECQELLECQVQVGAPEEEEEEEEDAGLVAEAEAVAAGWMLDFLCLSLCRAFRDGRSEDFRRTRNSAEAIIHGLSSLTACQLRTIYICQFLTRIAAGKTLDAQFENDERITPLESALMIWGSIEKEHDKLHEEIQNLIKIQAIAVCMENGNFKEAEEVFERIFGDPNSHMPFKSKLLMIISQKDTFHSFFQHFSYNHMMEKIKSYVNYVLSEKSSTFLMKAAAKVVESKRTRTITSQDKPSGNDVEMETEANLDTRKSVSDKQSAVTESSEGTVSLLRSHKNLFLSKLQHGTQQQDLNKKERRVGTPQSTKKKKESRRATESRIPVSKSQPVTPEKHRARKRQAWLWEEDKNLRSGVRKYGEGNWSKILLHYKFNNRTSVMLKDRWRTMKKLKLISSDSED
Nature of the data set: yeast two-hybrid, β-galactosidase; GAD without tankyrase sequences. The method, then:
TR1L-4 and TR1L-12 were isolated from a human liver two-hybrid cDNA library (Clontech) created in pGad10. The library was screened with human full length TRF1 cDNA fused to LexA (LexA-TRF1) [Bianchi et al., EMBO J., 16:1785-1794 (1997)] in the yeast strain L40 as described [Hollenberg et al., Mol. Cell Biol., 15:3813-3822 (1995)]. Two-hybrid analysis was performed as described by Bianchi et al. [EMBO J., 16:1785-1794 (1997)]. β-galactosidase assays for the two-hybrid analysis was performed as described by Bianchi et al. [EMBO J., 16:1785-1794 (1997)].
Two-hybrid analysis was used to determine the interacting domains between tankyrase and TRF1. […] To determine the tankyrase-interacting domain in TRF1, two-hybrid analysis was performed with the 10-ANK repeat domain of TR1L-12 fused to the GAL4 activation domain (GAD-tankyrase) and full-length and deletion constructs of TRF1 fused to LexA. […] As observed previously, the amino-terminal acidic domain of TFR1 (LexAd68-C) activated transcription even in the absence of tankyrase sequences in the GAD fusion partner. […] Deletion of the acidic domain of TRF1 (ΔN66-LexA) abolished the interaction with GAD-tankyrase.

B1: [TTAGGG]12 duplex, 142 bp HindIII-Asp718 fragment of pTH12 (dsDNA)
DNA 1: TTAGGGTTAGGGTTAGGGTTAGGGTTAGGGTTAGGGTTAGGGTTAGGGTTAGGGTTAGGGTTAGGGTTAGGG
DNA 2: CCCTAACCCTAACCCTAACCCTAACCCTAACCCTAACCCTAACCCTAACCCTAACCCTAACCCTAACCCTAA
On to B1, for which the binding result in the data set with TRF1 (hTRF1) is listed as “binds”.

B2: GAL4 activation domain (GAD) (alone) (other, UniProt P04386 768-881, looked up)
chain: ANFNQSGNIADSSLSFTFTNSSNGPNLITTQTNSQALSQPIASSNVHDNFMNNEITASKIDDGNNSKPLSPGWTDQTAYNAFGITTGMFNTTTMDDVYNYLFDDEDTPPNPKKE
notes: Control
In the case of B2, the binding result in data set [1] is reported as “no binding”.
